# From patent publication US7141393 (KABUSHIKI KAISHA HAYASHIBARA SEIBUTSU KAGAKU KENKYUJO, dated 2006)
# T1: IL-18R protein on the surface of L428 cell (human, UniProt Q13478 19-541)
# T1 construct: whole, on cells; Endogenous receptor on cell lines; also called L428 cells; IL-18R protein on the surface of KG-1 cell
# T1 sequence (looked up): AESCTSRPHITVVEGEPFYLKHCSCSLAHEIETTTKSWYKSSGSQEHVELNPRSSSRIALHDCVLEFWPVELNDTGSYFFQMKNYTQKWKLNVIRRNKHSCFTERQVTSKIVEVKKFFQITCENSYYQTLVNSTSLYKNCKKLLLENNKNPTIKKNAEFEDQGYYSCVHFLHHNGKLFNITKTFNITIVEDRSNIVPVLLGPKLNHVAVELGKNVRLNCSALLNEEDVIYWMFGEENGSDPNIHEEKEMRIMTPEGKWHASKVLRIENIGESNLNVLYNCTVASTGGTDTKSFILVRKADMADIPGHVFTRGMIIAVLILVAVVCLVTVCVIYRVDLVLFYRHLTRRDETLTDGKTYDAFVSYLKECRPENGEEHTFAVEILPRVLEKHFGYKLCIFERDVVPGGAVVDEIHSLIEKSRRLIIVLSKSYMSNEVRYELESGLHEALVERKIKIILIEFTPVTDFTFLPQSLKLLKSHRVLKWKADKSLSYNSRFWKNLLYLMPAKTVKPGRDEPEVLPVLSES
# B1: monoclonal antibody MAb #117-10C (antibody, V domains shown)
# VH: EVQLQQSGAELVKPGASVKLSCTTSGFNIKDIYIYWVKQRPEQGLEWVGRIDPANGDTKYGPNFQDKATITADTSSNTAYLQLRSLTSEDTAVYYCARRGNYGAGFGYWGQGTLVTVSA
# VL: DIQMTQSPASLSASVGETVTITCRASGNIHNYLAWYQQRQGKSPQILVYNAKTLADGVSSRFSGSGSGTQYSLNINSLQPEDFGTYFCQHFWSTPYTFGGGTKLEIKR
# notes: Mouse hybridoma antibody purified from ascites
# Molecular target: T1, IL-18R protein on the surface of L428 …
# Test: inhibition of 125I-labelled IL-18 binding to L428 cells (FIG. 1 legend)
# Experimental: Subsequently, each cell suspension was added with 200 µl mixture solution (volume ratio 1:1) of dibutylphthalate and diocthylphtalate and centrifuged at 10,000 rpm and 20° C. for 5 minutes, followed by collecting the resultant precipitates containing the cells which were then determined for radioactivity using "MODEL ARC-300", a gamma-ray counter commercialized by Aloka Co., Ltd, Tokyo, Japan.
# The levels of radioactivity found in "non-specific binding section" and "whole binding section" were put in Formula 1 together with that found in the sample testing section to calculate percent inhibition.
binder,measurement,value
B1,binding result,binds
